In patent publication US7888090B2, “Mutants of O6-alkylguanine-DNA alkyltransferase” (Ecole Polytechnique Federale de Lausanne, priority 2004, dated 2011):
“Also recorded” adds a separate entry of the source.

How the values were obtained:
[1] = Reaction of two AGT variants in one sample with CPTG and BG-Bt; format: biochemical; settings: versus His-tagged AGTM
Protocol: FIG. 2: Western blot of the reaction of wild type hAGT (GST-hAGT fusion protein) and AGTM with the two substrates N^9-cyclopentyl-O^6-bromophenyl-guanine (CPTG) and biotinylated O^6-benzylguanine (BG-Bt, substance 3a of Juillerat et al. 2003) as described in Example 7. BG-Bt is present in all samples at 5 μM. Detection with neutravidin-peroxidase conjugate and luminescent peroxidase substrate detecting any AGT reacted with BG-Bt. Even under simultaneous incubation with identical concentrations of CPTG and BG-Bt only about 5% of GST-hAGT reacts with substrate BG-Bt.
Within the experiment two tags with different size for the two AGT proteins are used: The His-tagged AGTM (˜20 kDa) and GST-hAGT (cloned and prepared as described in Example 1, but starting with the wild type hAGT gene, ˜48 kDa) are diluted to 0.2 μM and 1.2 μM final concentration, respectively, in reaction buffer containing 50 mM HEPES, 1 mM DTT, 200 mg/mL BSA (pH 7.3). The sample is incubated with a mixture of substrates N^9-cyclopentyl-O^6-bromophenyl-guanine (CPTG; 0, 5 and 10 μM final concentrations) and biotinylated O^6-benzylguanine (BG-Bt, 5 μM final concentration) for 30 minutes. The reaction is quenched by addition of SDS-Laemmli buffer and subjected to Western blotting analysis (Example 1). As the two AGT variants have different masses, the two proteins can be separated on an acrylamide gel and analyzed independently. […] At the same concentration (both substrates at 5 μM final concentration), 95% of GST-hAGT reacts with CPTG, versus only 5% of His-tagged AGTM.

[2] = test system: oligonucleotide SEQ ID NO:2 (modified in position 14); experiment: Reactivity against DNA-based substrates (BG-Cy3 assay with BG-modified oligonucleotide); format: biochemical; settings: oligonucleotide SEQ ID NO:2 with O^6-benzyl at position 14; compared to PGEG-hAGT
Protocol: The ability of wild type AGT or mutant AGT to react with alkylated DNA substrates is measured as the reaction of its inactivation by a synthetic oligonucleotide containing O^6-benzylguanine (SEQ ID NO:2, modified in position 14). Subsequently, the reactions are quenched by incubation with biotinylated O^6-alkylguanine. Samples are subjected to Western blotting and detection with streptavidin derivates to obtain kinetic constants for these substrates. Alternatively, the ability of wild type or mutant AGT to react with alkylated DNA substrates is measured via its labeling efficiency in competition with a fluorescent substrate of AGT. The reaction kinetics of AGT with BG-Cy3 (O^6-benzylguanine coupled to Cy3) is followed by fluorescence intensity measurements at various concentrations of a competing synthetic oligonucleotide containing O^6-benzylguanine (SEQ ID NO:2, modified in position 14).
Reactivity against DNA-based substrates measured with a BG-Cy3 assay: BG-Cy3 is prepared by reacting the previously described O^6-(4-aminomethyl-benzyl)guanine (Keppler et al., NatureBiotechnol. 21:86-89, 2003) with the commercially available N-hydroxysuccinimide ester of Cy3, (Cy3-NHS, Amersham). The coupling reaction is performed at ambient temperature in N,N-dimethylformamide in the presence of 1 eq. of triethylamine. The BG-Cy3 conjugate is purified by reversed-phase HPLC on a C18-column by using linear gradients from 0.1% trifluoroacetic acid to acetonitrile. After solvent evaporation BG-Cy3 is dissolved in dimethyl sulfoxide and stored at −20° C. For measuring the reactivity with DNA-based substrates, a reaction mixture containing different concentrations (0 to 5 µM) of oligonucleotide SEQ ID NO:2 (modified in position 14), GST-AGT fusion protein at 0.2 µM and BG-Cy3 at […] in reaction buffer (50 mM HEPES, pH 7.2, 1 mM DTT, 200 mg/ml BSA) is incubated in microtiterplates. Fluorescence of the Cy3 derivative (excitation 519 nm, emission at 572 nm) is measured on a Spectramax Gemini plate reader (Molecular Devices).

[3] = Activity assay with biotinylated O^6-benzylguanine (BG-Bt), Western blotting; format: biochemical; settings: statement in words
Protocol: Activity towards O^6-benzylguanine substrates is measured as described by Juillerat et al., Chem Biol 10:313-317, 2003.
Activity assay: Purified mutated GST-AGT is incubated in vitro with a biotinylated O^6-benzylguanine (BG-Bt, substance 3a of Juillerat et al., Chem Biol 10:313-317, 2003). In a total reaction volume of 80 […]I, 0.2 µM GST-AGT are incubated with 1 µM substrate in 50 mM HEPES pH 7.2 and 1 mM DTT at room temperature. At several points of time an aliquot is quenched with 1 mM O^6-benzylguanine (Sigma) in SDS-Laemmli buffer and subjected to Western blotting analysis (neutravidin-peroxidase conjugate (PIERCE), Renaissance reagent plus (NEN)). The intensity of the corresponding bands is quantified by a Kodak Image Station 440.

[4] = Competition of N^9-substituted and N^9-unsubstituted O^6-benzylguanine substrates; format: biochemical
Protocol: Such N^9-substituted O^6-alkylguanine substrates are the natural substrates of the wild type AGT. The ability of wild type AGT or mutant AGT to react with N^9-modified O^6-alkylguanine substrates is measured as the rate of its reaction with such substrates, e.g. with the low molecular weight N^9-cyclopentyl-O^6-benzylguanine in presence of biotinylated N^9-unsubstituted O^6-alkylguanine substrates in competition experiments. Subsequently, samples are subjected to Western blotting and detection with streptavidin derivates to obtain kinetic constants for these substrates. Alternatively, the reactivity towards such substrates is measured as the inhibition of the reaction of AGT with BG-Cy3. The reaction of AGT with BG-Cy3 is followed by an increase of Cy3 fluorescence intensity upon binding to AGT, after preincubation or in direct competition with the N^9-modified O^6-alkylguanine substrate.
Selected AGT mutants are subcloned into pGEX2T, expressed, purified and characterized as described in Example 1. Discrimination between N^9 substituted and N^9 unsubstituted O^6-benzylguanine substrates is evaluated by competition experiments for purified mutated GST-AGT in vitro with N^9-substituted and N′-unsubstituted O^6-benzylguanine. Aliquots of 0.2 μM GST-AGT are incubated with varying concentrations of N^9 substituted substrate (0, 0.5, up to 100 µM) and 0.5 µM biotinylated O^6-benzylguanine (BG-Bt, substance 3a of Juillerat et al., Chem Biol 10:313-317, 2003) in 50 mM HEPES pH 7.3 and 1 mM DTT at room temperature. After 45 min reactions are quenched by the addition of SDS-Laemmli buffer and heat denaturation. Samples are subjected to SDS-PAGE and Western blotting analysis (neutravidin-peroxidase conjugate (PIERCE), Renaissance reagent plus (NEN)). The intensity of the corresponding bands is quantified by a Kodak Image Station 440.

[5] = Expression yield of soluble GST-AGT fusion protein; set-up: species or system E. coli; settings: comparator not stated
Protocol: Expression yield is measured in E. coli or in any other of the standard production cells for genetically modified proteins, e.g. yeast, or preferably insect cells, CHO cells or HeLa cells. For quantifying expression yield, AGT fusion proteins may be chosen such that the fusion partner allows easy purification and quantification. For example, expression yield in E. coli is determined by measuring and comparing the yield of soluble and insoluble GST-wild type AGT fusion protein and GST-mutant AGT fusion protein from parallel E. coli expression cultures. Samples of the soluble fractions and insoluble fractions (i.e. the inclusion bodies) after cell lysis are subjected to SDS-PAGE, and the band staining intensities of the corresponding AGT fusion proteins are compared. Soluble protein is quantified after purification of the fusion protein from cell extracts by affinity chromatography (e.g. for GST-AGT fusion proteins by glutathione sepharose) by subjecting the purified fractions to a protein concentration assay (Bradford, Anal Biochem 72:248-54, 1976). The expression yield of similar proteins in the soluble fraction (difference in point mutations) can be used as a measure for protein stability in the unpurified as well as the purified state (Ohage et al., J Mol Biol 291:1119-1128, 1999; Wirtz et al., Protein Sci 8: 2245-50, 1999). Therefore, this is taken as a measure of folding stability and aggregation tendency.
Protein expression from this vector is carried out in E. coli strain BL21. An exponentially growing culture is induced with 0.5 mM IPTG, and the expression is carried out for 3.5 h at 24° C.
Purification: The harvested cells are resuspended in a buffer containing 50 mM phosphate, 0.5 M NaCl, 1 mM DTT, supplemented with 1 mM PMSF and 2 μg/ml aprotinin, and disrupted by lysozyme and sonification. The cell debris are separated by centrifugation at 40000×g. The extract is applied to pre-equilibrated glutathione sepharose (Amersham) which is then washed with 20 bed volumes (50 mM phosphate, 0.5 M NaCl, 1 mM DTT). The mutated GST-AGT fusion protein is eluted with 10 mM reduced glutathione in 50 mM Tris·HCl pH 7.9. The purified protein is dialyzed against 50 mM HEPES pH 7.2; 1 mM DTT; 30% glycerol and then stored at −80° C.
Determination of protein yield: Purity and relative amounts of the GST-AGT fusion proteins are compared by running samples on SDS-PAGE. UV spectra of the pure fractions are recorded using a Perkin Elmer Lambda 10. For protein samples containing no significant amount of DNA, the extinction at 280 nm as a measure of protein content is compared to that of wild type hAGT or PGEG-hAGT that were purified under the same conditions.

Molecule	specificity of CPTG towards GST-hAGT [1]	reduction of reactivity with oligonucleotides [2]	activity towards O^6-benzylguanine substrates [3]	reduced reactivity towards O^6-alkyl-N^9-deoxyribosylguanine or N^9-cyclopentyl-O^6-benzylguanine ([4]; comparator not stated)	reduction of reactivity towards O^6-alkyl-N^9-deoxyribosylguanine or N^9-cyclopentyl-O^6-benzylguanine ([4]; compared to PGEG-hAGT)	expression yield in E. coli [5]
Nc1nc(OCc2cc(Br)cs2)c2ncn(C3CCCC3)c2n1 [CPTG, reference compound]	high specificity	–	–	–	–	–
Gly131Lys, Gly132Thr, Met134Leu, Arg135Ser, Asn157Gly, Ser159Glu: hAGT mutant with the listed mutations, selected by phage display (protein, UniProt P16455 1-207, looked up, variant G131K G132T M134L R135S N157G S159E) Methylated-DNA--protein-cystei …: MDKDCEMKRTTLDSPLGKLELSGCEQGLHEIKLLGKGTSAADAVEVPAPAAVLGGPEPLMQCTAWLNAYFHQPEAIEEFPVPALHHPVFQQESFTRQVLWKLLKVVKFGEVISYQQLAALAGNPKAARAVKTALSGNPVPILIPCHRVVCSSGAVGGYEGGLAVKEWLLAHEGHRLGKPGLGGSSGLAGAWLKGAGATSGSPPAGRN	–	at least 1000 fold	at least twofold further increased activity; also recorded: increased reactivity	substantially reduced reactivity	at least 10 fold	increased expression yield
Gln115Ser, Gln116His, Cys150Asn, Ser151Ile, Ser152Asn, Asn157Gly, Ser159Glu: hAGT mutant with the listed mutations, selected by phage display (protein, UniProt P16455 1-207, looked up, variant Q115S Q116H C150N S151I S152N N157G S159E) Methylated-DNA--protein-cystei …: MDKDCEMKRTTLDSPLGKLELSGCEQGLHEIKLLGKGTSAADAVEVPAPAAVLGGPEPLMQCTAWLNAYFHQPEAIEEFPVPALHHPVFQQESFTRQVLWKLLKVVKFGEVISYSHLAALAGNPKAARAVGGAMRGNPVPILIPCHRVVNINGAVGGYEGGLAVKEWLLAHEGHRLGKPGLGGSSGLAGAWLKGAGATSGSPPAGRN	–	–	retains activity	–	–	substantially increased expression yield
